Data on two molecules can be found in doi:10.1101/2023.01.06.522972 (bioRxiv, 2023).

Sequences and labels used below:
B2: Leishmania major profilin, wild type (natural protein)
chain: SWQAYVDDSLIGSGNMHSAAIIGAADGSYWAYGGSYVPQPEEVQHIQKCLSDFSFVQSSGVNIYGVKFFGLQCGTDGDCKYIFFKKGAAGGCIYTTKQAFIVAVYGNPGDTSSLQQDLEKNTAHAVTVNPADCNTTVKRIADYLIKLGY
notes: also called LmProfilin; LmProf-WT

What all share (conditions): both partners purified
Experiment [1] has as its target B2. The experiment is described as follows: other fluorescence titration.
Experiment [2] deals with T1, Leishmania major actin (Leishmania major, UniProt P45520 2-376).
T1 construct: also called LmActin; Leishmania actin
The experiment is described as follows: crystal structure.

For experiment [3], the target named is T1, Leishmania major actin. Description: ITC. A general note: Isothermal titration calorimetry measures the heat released or taken up as one component is titrated into another.

T1 sequence (P45520 2-376): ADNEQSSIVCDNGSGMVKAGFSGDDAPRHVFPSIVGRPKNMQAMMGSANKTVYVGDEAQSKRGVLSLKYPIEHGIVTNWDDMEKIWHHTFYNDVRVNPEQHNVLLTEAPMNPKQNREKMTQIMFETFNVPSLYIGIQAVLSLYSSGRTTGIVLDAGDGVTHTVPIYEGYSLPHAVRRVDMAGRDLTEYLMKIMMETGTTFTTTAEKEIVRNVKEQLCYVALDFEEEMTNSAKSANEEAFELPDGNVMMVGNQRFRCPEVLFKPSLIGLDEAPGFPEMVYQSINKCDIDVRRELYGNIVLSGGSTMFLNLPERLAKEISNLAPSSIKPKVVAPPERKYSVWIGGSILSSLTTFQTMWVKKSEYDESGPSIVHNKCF

B1: poly-L-proline decamer peptide (peptide)
peptide: PPPPPPPPPP
notes: also called poly-L-proline peptide; poly-proline decamer
In the case of B1, the Kd (in general, the constant that tells how readily two partners part at equilibrium) in experiment [1] turned out to be 242 ± 38.4 µM.

In the case of B2, the stoichiometry N (usually a count of units in the complex or per binding partner) in experiment [2] was 1. Also, the dissociation constant (Kd) in experiment [3] was about 80 nM.
